Assay results as given in the DeepSol protein solubility set.

test: soluble on expression in E. coli; label from the status in PepcDB or PDB records

Sequence | soluble on expression in E. coli
MSLHQFQQDNQYFIFNFDRTFEQATEFFQAEFWQKQERVIGSAKGRGITYFLQTEDWFGVNCALRHYYRGGLWGKLNKDRYRFSALETTRSFAEFHLLQRLYEAGLPVPKPIAARIQKGKLGICYQADILTEKIENAQDLTALLQTQTLPKETWMQIGRLIRKLHDLQICHTDLNAHNILLQQTEQGQKCWLLDFDKCGEKSADFWKVQNLNRLKRSFEKEVGRMNIQFTEQNWADLTSAYHQEGHHHHHH | soluble
MSLIDLYDLRMPQRTGTYVLHEENLAIIETGPSPSVPHLLAGLKALHIDPADIRYIIVTHIHLDHAGGVGVLLEHCPNATVIVHPKGKRHLADPSRLIAGAKAVYGEQFDALFDPIVPVPEERLLVKEDGETLVLSAERTLTFYDTPGHANHHFSIYDSYSGGVFTGDTIGVFYPQLQEAGLAFCLPSTSPNQFNPEAMKQSAERLEKLNPTRIYFGHFGALDQPEEAFRQLRFWLPKFVAAGKEVIARHPEAPAAEQAKAVTKLLHNDITAFLNECSIPASSPVYKVIELDLQVCAMGIIDYWRKQRLEHHHHHH | not soluble
MSLIGLDLDSAPDLIQSVPAPRLRRQVWLRTASGQRLAYATSWWEASHVDEYLQNRSLPIWASLARLRTELYRDVRGIYYGNSEALQLGFGVDGPFWGRHYLFWHHGQPLTLIYEVFSPYLTKYLGPMQLSSRNGKILEHHHHHH | not soluble
MSLIIRTDTSPHRAAAKLSPNELTLTGARLVLPDEVYDGTVHIIDGYIDDIAAGRSTVPGAIDLEGGYVTPGLIDLHTDNSEKHALPRAGVVWNHLSAVMAHDALVIAAGITTVFDSLCIGSTTRDHTRQADRARILPVLIDGIREARAHGLLRADHFLHLRCEVTDEEVMSVFTPLVGDPLVKLVSVMDHAPGHRQSPQLDRFREMQIKQYGWSAEDADRRIEAWIDASRTIGPQNRSRIIALARARQLPLASHDDQTPEHVREANDAGVLISEFPTTRAAAEIARSLGICILMGAPNIVRGSSHSGNISARELATTGHLDILASDYVPASLLHGAFQLTRDPIGMSLTKAISTVSSVPASVTGFCDRGMIGIGGRADLCHIVEIADIPVVRGVWRQGRQVFEGHHHHHH | not soluble
MSLIMITAEMVPPDLLIKRLAIYLKENVKTVDPPEWALLAKTASFKERVPDNAEDWWYIRAASLLRKLYVNSIIGIEKTRTIYGGRKRRGTRPEKFVKAPGHVNRLIFQQLEKAGLVQKIKNKGRSLSPKGRSLLDKLALEIFKELAENNTSLKVYLELEHHHHHH | soluble
MSLINGSDPRYNFNVAPYPYCRLCKGHKHMCGLRVCPILERFQEVFPRLDLHGDISTSTPPSIFIGEYNYPSVYGGIMSVVDPERPYARRDMFDLGMPEIIERNANLFRNVKTVSVHNLSEKTVEQIQEAAMALNELRVESRIVGKEKHFDFFDSPVGPMYKSENIKVYGNAKTPRAAQDVIYDIDLNSTEALKILYMNSIDINYITGLLSGGLLGIEKKRKLVPTRWSITAVDDTISRYLKSDALNYESIDKPMVFSYSRFGNHFNIILLPRGTAFEMQEYWEIGSLWGSDGRVSIDFEGHHHHHH | soluble
MSLINRKDALPITRQCRLLDLSRSGFYYTPRPVSAKDLELMRQIDEIHLAFPFYGSRKIRDELWARKHNVGLDKVRRLMRRMGIEALYVKPRLSLSYPEHVKYPYLLRRLEINRANQVWITDITYIPMAKGFCYLVAIMDEGHHHHHH | not soluble
MSLIRSMTAYARREIKGEWGSATWEMRSVNQRYLETYFRLPEQFRSLEPVVRERIRSRLTRGKVECTLRYEPDVSAQGELILNEKLAKQLVTAANWVKMQSDEGEINPVDILRWPGVMAAQEQDLDAIAAEILAALDGTLDDFIIARETEGQALKVLIEQRLEGVTAEVAKVRAHMPEILQWQRERLIAKLEDAQVQLENNRLEQELVLLAQRIDVAEELDRLEAHAKETYNILKKKEAVGRRLDFMMQEFNRESNTLASKSINAEVTNSAIELKVLIEQMREQIQNIEEGHHHHHH | soluble
MSLKAKYVWVALLALTFFGCDDNTGTIGWDMLPDSDQNINGRYTTYELTTNSDLSGPVFAKTSVGYVGKFTDKEFGEYEASFLAQLNSPDGISFPSVYDPETNPKGVMAGDSIHTAELILYYKSYFGDSINPCRMTVYELDENLTQNYYTDIDPLKYYNPNNLLARKAYTAVDQSLSDSIRNSDDFYPNVRLTSEEITKLGKRIYRLNRDHPEYFKTSEAFINNVFKGIYAKNDYGNGTILYVDQINLNVVIRCHEKDSLGNNLKKKNGADSLYYTTRTFATTKEVIQANKFVNSEKLNEIAKKTDCTYLKSPAGIFTQATLPINKIYEELSHDTINAVKLTFNSYNQPDNGKFSMKAPTYVLLLREKERQSFFEENKLTDNITSYLAVHNAIISNKPTTNQYVFTNLTRLINACVNEKQEAKKKAGDSWNEAAWEAANPDWNKVVLIPVLVQYDSSSNKNMISIQHDLQPGYVKLEGGPDGTKLKLEVTYTNFNGKEGHHHHHH | not soluble
MSLKALNKETAPKVQRPERIIQFGEGNFLRAFVDWIIYNMNQKTDFNSSVVVVQPIDKGMVDMLNAQDDLYHVNLQGLDKGEVVNSLTMIDVISRALNPYTQNDEFMKLAEQPEMRFVISNTTEAGIAFDPTCKLEDAPASSYPGKLTQLLYHRFKTFNGDKTKGLIIFPCELIFLNGHKLKETIYQYIDLWNLGNEFKTWFEEACGVYATLVDRIVPGFPRKDIAAIKEKIQYDDNLVVQAEIFHLWVIEAPQEVAKEFPADKAGLNVLFVPSEAPYHERKVTLLNGPHTVLSPVAYLSGVNIVRDACQHEVIGKYIHKVMFDELMETLNLPKEELKKFAEDVLERFNNPFVDHAVTSIMLNSFPKYETRDLPGLKTYLERKGELPKGLVLGLAAIITYYKGGVRADGAEIVPNDAPEIMNLLKELWATGCTKKVTEGVLAAEFIWGEDLNKIPGLAAAVKADLDSIQEKGMLETVKGILEGHHHHHH | soluble
MSLKAPVDFEQEVAPLLSQRCVSCHSPNIKKGELSLAGPEDLLANGYVVPGDPAGSYLLEVVSPAGDDPAAMPKLGDALAEPEVALLRRWIEQGAVWPDGFVIREASKADRSWWSLQPLADIHPPEVAAAPAAWRQNPIDRFVWAKLSEANLKPNSPADRRTLIRRATFDLTGLPPTAEEIDTFVASDSPDAYPQLIDRMLASPRYGERWGRHWLDVIRFGESRGFERNQIITNLWPFRDYVIRSINEDKPFDQFIREHLAGDVIAPNTPQVEVGSAFLVAGPYDDVGNEGHHHHHH | soluble
MSLKARTKIEKQVAASNEKLTAISPKVMTWAVRKVAGHVCFRTSAHKCTCGECGRQFDYEGKGKSVCCPYCGTRLQIKDTLKRTIKEAYYFSSLEVIDHLQVQRVFRLETTFRKGLPMEVDYWEACRLWLNAEGKSAVTARARTLSYYVDCFDWASEITLKRPNEVHWLIADTYVYPHYRLLPELKRNGMKGKLPDCYPMKLMKAVLTDSRMETILKSKDLHAVSYFVNRPLELDRCWQSYKVATRHHYRPSDMGLWADTIRLLEQCGKDICSPRYICPQNLKAEHDYWMNRHNQMEQKRRSQEQIQRAKRKEAEFYKEKSRYFGITITDKDLVISVLDTLEAFQAEGNALHHCVFQCEYYAKADSLILSAHDKEGNRIETIEFSLTEGKVIQSRGLCNTNTPHHDRIVRLVNAHAHQILAAKQTAEGHHHHHH | not soluble
MSLKDPLSEALVRLNQKVDSELIPEIKRFPLIGISTDISPKRTAVNTAYVQSVILSGGIPYMIPVTDNVEILRQIVSRLDGIVFTGGEDIQPMYYGDLPYEKLEEVSPARDTFDLMVLKMAADRNIPILGICRGLQLMNVAFGGTLYQDLPTQHPSSVNHRQKESGTTTTHPISIIKGSKLADITGQEVLQVNTFHHQAIQKLAPGFKITAWAPDSIAEAIEAYPIRQMIGVQFHPEIFTAAGDTTMHKLFKFLVNKADEGHHHHHH | not soluble
MSLKEELLEAIYGTVERLEQKVDELSASPKNTEAESTPVSVSVDTSKLEKAILAMAVKEGEAIDKLVRLREAICIFTDLTKKEASKDEQRSKLLFDTINQVKQELNATSKNVQDKLHAMDNAPLKKVVTHRFEPTSKYVLLFIGGLALSLVISIWGNLAQWREYQAWEVADLKYRALKMVLPSDDPNVRYIEKHFSVCRDEKVIDDVRNCVAAYEDSIRHHHEMVEMATYKDSIANKLLQESNRIIRAMKSSKEGHHHHHH | not soluble
MSLKEESLLEYYAQDSFYAEYSSGTGYEIQERALRSTFSRYMKELHKRNVTGGKLLEIGCGFGFLLDEAKNYFDYRIGTDFSSEAVSHAKKYADNVYCGGLEAIPSDTSTKFDCVITFSVLEHVYNPNTFIQEIQNYMAPNGSLVVSTPFIGGMWYKILGKKWSFFIPPEHVCLYNHNSISQLLKQNGFKNIEMFISSHAWPVAGFLSKMGMRKLSSMTLKLKIGDVPLFVPFTIINIIGSKEGHHHHHH | not soluble
MSLKENKYDDKHFFEQYSQMPRSKEGLKAAGEWHELKKMLPDFNQKTVLDLGCGFGWHCIYAAEHGAKKVLGIDLSERMLTEAKRKTTSPVVCYEQKAIEDIAIEPDAYNVVLSSLALHYIASFDDICKKVYINLKSSGSFIFSVEHPVFTADGRQDWYTDETGNKLHWPVDRYFNESMRTSHFLGEDVQKYHRTVTTYIQTLLKNGFQINSVIEPEPAPELKDLPEMQDEYRRPMMLLISATKQEGHHHHHH | soluble
MSLKENNMDKAHIGFIGLGLMGAAMVECLQKAGHAVTVLGNRDRTGVEAALARGATEAAHARAVAEASDIVMLCMGTSAQVESRIYGDDGVLAGTREGQVVIDFGTSLPASTRRIGGDLAGKGATYLDAPLGRTPAHARDGLLNIMCSGDKATFDRVKPVLHTLGENVFHLGALGNGHTIKLINNCYSMTTACAMAEAFAIADATGIERQALYNVMAAGPNHSGMMDFINAYANGGRIDLAFTVANAAKDVGYYRQMATEMGLFSRMSIAADATLREARDGGDGGLMVPQMIDWMVRHLGEEGHHHHHH | soluble
MSLKFIEEVVVEEFLPTFRSLLAADLRERGLTQHEVAELLGVSQSAVSKYAHGDVTTDDEIAADDRVQELVERTGSGLATGNVSQVQALVEAEVLVRELSTSSDILAERHEAANPALADYDGDFTVHDADSEVRVREHVLSSVRRGVRMLERTSGFATQIPAVGANLVECTPEADTVEDVAGVPGRVLDVMGRTEIPAEPEFGVSAYVATVLLDARAAGVDAHAALNIAYSADTVAALADAGYAVVEFEPEGESTTDDHHIRDAVRDADAVDVLYQTGGYGVEPIVYVLAENAPDAVRMARGLEGHHHHHH | soluble
MSLKGSEVITKFSKVDTIMFDKTGTLTYGDPRVSQVKKYGQGQLAEQLLVSVEKESAHPLAKAITGYYEDLEAEEVEASRVLQGGGIVAQVAGQQVLVGNRYLLDQYHVLVTKEMERDMEELASAGNSLVLVAVNGQLELALGLKDEIRAGVKEDLAALKKQGVKNLLLLSGDNQKTVDLVAEELGPTEAYGQLLPEDKAEFVKKRQAAGEIVAFVGDGINDSPSLARADIGIAMGSGTDVAIETSNVVLMNGSFDRIPRALALAKATRRNMIENEGHHHHHH | soluble
MSLKGTYVLLLKLEESVALRYGKKASHLEPGYYAYVGSAMGGFFKRIPRYFLGSRKRHWHIDYLLDHAQIAGLIMFSGKRIEEEISNVLSYHFEGIEDFGASDLRVKTNLYHVDPDKLFSLLGGFRENRDIRRAQKHRGKQNQSGEGHHHHHH | soluble
MSLKHLWFEKGAYASKAARQYLNDHFNPLAVKKTAVIRHAALGDQVIVRPFLVEARKFFPNAEITLVTVSNYLYGTPSDLADKTVIMKSRDDSKQLSLRQKWQDYNQLEAQDIIFDVAGTNRSYWMTLLTKAKLKVGFPYKPFLCGTLYNLAVFRSDFQPEVECMLDMLKILGHNPSYPLDFAYPDNRQICDHAAPYIVYFSGASQLRKILTKPEMRAVIEQTIQQQPNVKHVFLEGKNEFEKGEYLQDLADNGSLTIQPCLPLDDLVTFIAKATLVIAPDTGIRNVAISTHTPTVGIFYATVPFRYTPLYEAHTIVMNANGEKPSTEQITSAIDTTLKMRLAAAKNTQEQEGHHHHHH | soluble
